For assay [1], the target named is hemagglutinin of avian influenza virus H5N1 (avian influenza virus H5N1). Briefly: ELISA. For orientation: In an ELISA, binding on a coated surface is turned into a signal by an enzyme label.
For assay [2], the target named is hemagglutinin of avian influenza virus H1N1 (avian influenza virus H1N1). The experiment in a line: ELISA.

hemagglutinin of avian influenza virus H5N1 (avian influenza virus H5N1), sequence (Q9Q0U6 17-568): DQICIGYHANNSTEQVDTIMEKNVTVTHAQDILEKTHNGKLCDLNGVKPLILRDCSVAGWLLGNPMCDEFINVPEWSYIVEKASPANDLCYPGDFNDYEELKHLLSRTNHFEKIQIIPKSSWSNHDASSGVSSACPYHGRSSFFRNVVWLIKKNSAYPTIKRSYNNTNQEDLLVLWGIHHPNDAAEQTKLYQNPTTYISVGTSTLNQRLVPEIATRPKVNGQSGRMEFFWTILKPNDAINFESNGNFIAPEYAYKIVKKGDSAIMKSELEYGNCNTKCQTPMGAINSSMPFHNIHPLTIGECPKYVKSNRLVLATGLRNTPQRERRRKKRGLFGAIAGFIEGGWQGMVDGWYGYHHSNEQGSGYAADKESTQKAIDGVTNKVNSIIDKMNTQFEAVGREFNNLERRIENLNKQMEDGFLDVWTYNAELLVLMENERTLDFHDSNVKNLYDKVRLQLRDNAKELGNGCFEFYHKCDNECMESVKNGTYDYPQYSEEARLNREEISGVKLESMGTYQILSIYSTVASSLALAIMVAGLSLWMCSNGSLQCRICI

For “Desialylated ovomucin (from UniProt Q98UI9;F1NBL0) (complex)”, the percent decrease of binding capacity against natural OVM in assay [1] was 71.5%; in assay [2] it was 64.2%.
